From patent US20240116985A1 (published 2024)
Starred links: 1 amine or outer side, 2 acyl side, 3 side chain; linkers in the order of their positions; H or OH if unused. Positions of bridges follow the written chain, without caps; N, C: chain ends. Non-standard residues stand in square brackets, D forms with d. Primed or numbered codes have the meaning given here. B5(10) = 2-amino-2-(pent-4-en-1-yl)hept-6-enoic acid, bis(4-pentenyl)glycine, stitching residue bearing both staples, C=CCCCC(CCCC=C)(N[*:1])C(=O)[*:2]; B5(4) = 2,2-bis(4-pentenyl)glycine = 2-amino-2-(pent-4-en-1-yl)hept-6-enoic acid (stitching residue), C=CCCCC(CCCC=C)(N[*:1])C(=O)[*:2]; B5(5) = 2,2-bis(4-pentenyl)glycine, 2-amino-2-(pent-4-en-1-yl)hept-6-enoic acid (stitching residue), C=CCCCC(CCCC=C)(N[*:1])C(=O)[*:2]; PyrS(3) = (S)-1-((allyloxy)carbonyl)-3-aminopyrrolidine-3-carboxylic acid, stapling residue, C=CCOC(=O)N1CC[C@@](N[*:1])(C(=O)[*:2])C1; B5(33) = 2-amino-2-(pent-4-en-1-yl)hept-6-enoic acid (bis-pentenylglycine, two olefin side chains), C=CCCCC(CCCC=C)(N[*:1])C(=O)[*:2]; PyrS″ = (S)-1-((allyloxy)carbonyl)-3-aminopyrrolidine-3-carboxylic acid (stapling residue), C=CCOC(=O)N1CC[C@@](N[*:1])(C(=O)[*:2])C1; SeN = (S)-5-(((allyloxy)carbonyl)(methyl)amino)-2-amino-2-methylpentanoic acid, C=CCOC(=O)N(C)CCC[C@](C)(N[*:1])C(=O)[*:2]; B5(3) = 2,2-bis(4-pentenyl)glycine (stitching residue), C=CCCCC(CCCC=C)(N[*:1])C(=O)[*:2]; Phe(3-CF3) = N[C@@H](Cc1cccc(C(F)(F)F)c1)C(=O)O; Phe(4-COOH) = N[C@@H](Cc1ccc(C(=O)O)cc1)C(=O)O; 1Nal = N[C@@H](Cc1cccc2ccccc12)C(=O)O; 2Nal = N[C@@H](Cc1ccc2ccccc2c1)C(=O)O; hTyr = N[C@@H](CCc1ccc(O)cc1)C(=O)O; αAllylPro = C=CC[C@@]1(C(=O)O)CCCN1; hPhe = N[C@@H](CCc1ccccc1)C(=O)O; 2Pal = N[C@@H](Cc1ccccn1)C(=O)O; R8 = C=CCCCCCC[C@@](C)(N)C(=O)O; S8 = C=CCCCCCC[C@](C)(N)C(=O)O

T1: full-length beta-Catenin (Uniprot ID P35222) (Homo sapiens (Human), UniProt P35222 2-781)
T1 construct: also called B-Catenin; bCat
T1 sequence: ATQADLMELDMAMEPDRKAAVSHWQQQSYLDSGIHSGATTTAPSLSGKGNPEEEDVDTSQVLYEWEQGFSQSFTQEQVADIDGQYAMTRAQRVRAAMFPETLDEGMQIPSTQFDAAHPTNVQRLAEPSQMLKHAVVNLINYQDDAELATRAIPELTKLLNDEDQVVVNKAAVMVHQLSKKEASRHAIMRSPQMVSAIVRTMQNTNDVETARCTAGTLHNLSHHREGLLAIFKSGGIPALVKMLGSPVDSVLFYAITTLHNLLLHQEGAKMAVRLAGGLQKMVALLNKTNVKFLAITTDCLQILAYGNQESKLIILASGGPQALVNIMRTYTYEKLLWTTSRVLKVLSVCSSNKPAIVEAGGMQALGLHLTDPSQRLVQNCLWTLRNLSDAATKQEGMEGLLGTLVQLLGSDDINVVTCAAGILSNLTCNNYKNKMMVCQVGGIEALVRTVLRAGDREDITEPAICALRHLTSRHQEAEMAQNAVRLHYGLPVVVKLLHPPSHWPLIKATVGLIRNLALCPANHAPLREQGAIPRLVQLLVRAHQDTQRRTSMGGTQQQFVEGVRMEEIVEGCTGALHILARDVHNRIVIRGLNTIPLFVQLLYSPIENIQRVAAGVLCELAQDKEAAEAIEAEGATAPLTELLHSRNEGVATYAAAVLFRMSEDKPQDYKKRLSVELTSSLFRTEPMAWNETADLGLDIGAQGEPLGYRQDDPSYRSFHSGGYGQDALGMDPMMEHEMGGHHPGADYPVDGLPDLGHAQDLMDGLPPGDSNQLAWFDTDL

T2: full-length beta-Catenin (Uniprot ID P35222) (Homo sapiens (Human), UniProt P35222 2-781)
T2 construct: The AlphaScreen assay used a Histidine (Nickel Chelate) detection kit, so a His tag is likely, but no tag is described; also called B-Catenin; bCat
T2 sequence: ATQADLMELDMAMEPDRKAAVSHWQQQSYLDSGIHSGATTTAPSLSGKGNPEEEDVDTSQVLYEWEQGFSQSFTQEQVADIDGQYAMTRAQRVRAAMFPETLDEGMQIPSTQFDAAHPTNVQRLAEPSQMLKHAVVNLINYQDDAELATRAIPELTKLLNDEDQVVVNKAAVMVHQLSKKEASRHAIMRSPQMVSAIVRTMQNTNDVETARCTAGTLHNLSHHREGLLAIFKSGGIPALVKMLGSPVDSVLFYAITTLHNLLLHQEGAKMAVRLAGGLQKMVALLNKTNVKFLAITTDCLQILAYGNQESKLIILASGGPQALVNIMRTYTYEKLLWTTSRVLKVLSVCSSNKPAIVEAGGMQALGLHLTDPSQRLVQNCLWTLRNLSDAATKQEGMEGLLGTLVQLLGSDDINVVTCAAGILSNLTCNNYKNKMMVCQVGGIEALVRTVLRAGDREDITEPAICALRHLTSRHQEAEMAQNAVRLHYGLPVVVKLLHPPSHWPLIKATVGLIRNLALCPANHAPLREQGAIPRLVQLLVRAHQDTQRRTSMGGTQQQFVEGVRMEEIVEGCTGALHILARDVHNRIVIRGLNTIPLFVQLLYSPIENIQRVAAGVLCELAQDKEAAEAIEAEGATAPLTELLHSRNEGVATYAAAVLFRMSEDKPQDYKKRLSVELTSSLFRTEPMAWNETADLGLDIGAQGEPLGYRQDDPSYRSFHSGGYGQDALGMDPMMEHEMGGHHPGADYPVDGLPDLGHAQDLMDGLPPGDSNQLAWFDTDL


molecular target: T1, full-length beta-Catenin (Uniprot ID …); assay: Alphascreen competition; biotin-TCF4(10-53) probe with full-length beta-catenin
Experimental: (§1) Equal volume of the titrated peptide was added to the plate and incubated for 15 minutes at 20° C. Then 4 uL of donor and 4 uL acceptor beads at 10 ug/mL were added to the plate, for a 16 uL reaction pool and protected from light for 60 minutes at 20° C. prior to read. Reads were performed on a CLARIOstar plate reader (BMG Labtech) in duplicate, and data were fitted to a 1:1 binding model with hill slope using an in-house script. All provided concentrations are final concentrations.

EC50 [µM]	Binder
7.64	Ac-FDA[R8]DDAAFV[PyrS″][Phe(4-COOH)]WQ-NH2 (staple 4-11, Stapled peptide composition; same description as I-110, separate later-eluting HPLC peak (staple isomer)) [I-111]
1.28	XDAXDNAAFVXFWQ (not fully specified; as printed: Ac-PL3-Asp-Ala-B5-Asp-Asn-Ala-Ala-Phe-Val-S8-Phe-Trp-Gln-NH2; staples PL3(1)-B5(4) and B5(4)-S8(11), Stitched (two-staple) peptide composition) [I-124]
1.48	Ac-[αAllylPro]DA[B5(33)]DQAAFV[S8]FWQ-NH2 (staple 1-4, 4-11, Stitched (two-staple) peptide composition) [I-126]
4.55	Ac-FDA[R8]DDAA[hTyr]V[PyrS(3)]FWQ-NH2 (staple 4-11, Stapled peptide composition) [I-120]
4.78	Ac-FDA[R8]D[2Nal]AAFV[PyrS″]FWQ-NH2 (staple 4-11; also: earlier-eluting HPLC peak (staple isomer), Stapled peptide composition) [I-115]
3.64	Ac-FDA[R8]D[2Nal]AAFV[PyrS″]FWQ-NH2 (staple 4-11; also: later-eluting HPLC peak (staple isomer), Stapled peptide composition) [I-116]
4.74	Ac-FDA[R8]D[1Nal]AAFV[PyrS″]FWQ-NH2 (staple 4-11, Stapled peptide composition) [I-114]
≥ 10	Ac-FDA[R8]DDAA[2Nal]V[PyrS″]FWQ-NH2 (staple 4-11, Stapled peptide composition) [I-112]
0.797	Ac-[αAllylPro]DA[B5(4)]DEAAFV[SeN]FWQ-NH2 (staple 1-4, 4-11, Stitched (two-staple) peptide composition) [I-130]
0.907	Ac-[αAllylPro]DA[B5(10)]DEAAFV[S8]FW-NH2 (staple 1-4, 4-11, Stitched (two-staple) peptide composition) [I-128]
6.2	Ac-FDA[R8]DDAA[2Nal]V[PyrS″]FWQ-NH2 (staple 4-11, Stapled peptide composition) [I-113]
4.36	Ac-FDA[R8]DDAA[hPhe]V[PyrS(3)]FWQ-NH2 (staple 4-11, Stapled peptide composition) [I-118]
≥ 10	Ac-FDA[R8]DDAA[hPhe]V[PyrS″]FWQ-NH2 (staple 4-11; also: earlier-eluting HPLC peak (staple isomer), Stapled peptide composition) [I-117]
4.94	Ac-FDA[R8]DDAA[hTyr]V[PyrS(3)]FWQ-NH2 (staple 4-11, Stapled peptide composition; same description as I-120, separate earlier-eluting HPLC peak (staple isomer)) [I-119]

molecular target: T2, full-length beta-Catenin (Uniprot ID …); assay: AlphaScreen competition: full-length beta-catenin + biotin-TCF4(10-53) probe, peptide titrated
Experimental: as §1

EC50 [µM]	Binder
7.53	Ac-[αAllylPro]DA[B5(3)]D[1Nal]AAFV[S8]FWQ-NH2 (staple 1-4, 4-11, Stapled peptide composition; also called Ac-PL3-Asp-Ala-B5-Asp-1NapA-Ala-Ala-Phe-Val-S8-Phe-Trp-Gln-NH2) [I-234]
4.12	Ac-FDA[R8]DDAAFT[PyrS″]FWQ-NH2 (staple 4-11, Stapled peptide composition; also called Ac-Phe-Asp-Ala-R8-Asp-Asp-Ala-Ala-Phe-Thr-PyrS-Phe-Trp-Gln-NH2) [I-223]
4.61	Ac-[αAllylPro]DA[B5(4)][2Pal]EAAFV[S8]FWQ-NH2 (staple 1-4, 4-11; also: separate staple isomer composition, Stapled peptide composition; also called Ac-PL3-Asp-Ala-B5-2pyrA-Glu-Ala-Ala-Phe-Val-S8-Phe-Trp-Gln-NH2) [I-230]
0.384	Ac-[αAllylPro]DA[B5(3)]DDAA[Phe(3-CF3)]V[S8]FWQ-NH2 (staple 1-4, 4-11, Stapled peptide composition; also called Ac-PL3-Asp-Ala-B5-Asp-Asp-Ala-Ala-3F3MeF-Val-S8-Phe-Trp-Gln-NH2) [I-237]
0.267	Ac-[αAllylPro]DA[B5(5)]DDAA[Phe(3-CF3)]V[S8]FWQ-NH2 (staple 1-4, 4-11; not fully specified; printed as Ac-PL3-Asp-Ala-B5-Asp-Asp-Ala-Ala-3F3MeF-Val-S8-Phe-Trp-Gln-NH2, Stapled peptide composition; also called Ac-PL3-Asp-Ala-B5-Asp-Asp-Ala-Ala-3F3MeF-Val-S8-Phe-Trp-Gln-NH2) [I-239]
5.81	Ac-[αAllylPro]DA[B5(4)][2Pal]EAAFV[S8]FWQ-NH2 (staple 1-4, 4-11; also: separate staple isomer composition, Stapled peptide composition; also called Ac-PL3-Asp-Ala-B5-2pyrA-Glu-Ala-Ala-Phe-Val-S8-Phe-Trp-Gln-NH2) [I-229]
